These results are taken from doi:10.1101/416032.

Bounds are passed on as bounds.

This test deals with BG505.SOSIP.664-AviB (HIV-1 (clade A, BG505)) (UniProt Q2N0S6). As to the kind of experiment: BLI. In general terms: Biolayer interferometry detects binding as a change in optical thickness at a sensor tip.

As a reminder, the Kd is a measure of binding affinity in units of concentration. As for BF520.1 matureVHnaïveVK mAb (antibody), the Kd is 8.95 nM. Turning to BF520.1 naïveVHmatureVK mAb (antibody), the Kd is < 0.001 nM.
